The target of the experiment is human wild-type calmodulin (CaM-WT) (human, UniProt P0DP23 2-149). Kind of experiment: ITC; Kv7.1-HA peptide titrated into CaM (~50 uM) in the cell; 50 mM Na-HEPES, 100 mM KCl, 2 mM MgCl2, pH 7.5, 5 mM CaCl2; 25 °C; one-site binding model. The following applies: both partners purified.

In publication PMC10952621, “Long QT syndrome‐associated calmodulin variants disrupt the activity of the slowly activating delayed rectifier potassium channel” (The Journal of Physiology, 2023) one finds Kd data, which are given here for one molecule.

B1: Kv7.1-HA(370-389) peptide, helix A of the KCNQ1 C-terminus (peptide)
peptide: AAASLIQTAWRCYAAENPDS
notes: source: synthetic peptide (GenicBio, HPLC purified, >95% purity)
In turn, B1 displayed a dissociation constant (Kd) of about 96 µM.
